This data set deals with the molecule itself. Description: SEC-MALS; protein alone, 250 μl at 1 and 4 mg/ml on Superose 6 Increase 10/300; 20 mM Tris pH 8.0, 150 mM NaCl, 5% glycerol, 0.5 mM TCEP, 10 μM PLP; oligomeric state of the holoenzyme.

Results on two proteins are retold here after article PMC11602143, “Human selenocysteine synthase, SEPSECS, has evolved to optimize binding of a tRNA-based substrate” (Nucleic Acids Research, 2024).

Usually stoichiometry N stands for a count of units in the complex or per binding partner.

B1: Human SEPSECS (O-phosphoseryl-tRNA^Sec selenium transferase), wild type (enzyme)
chain: MNRESFAAGERLVSPAYVRQGCEARRSHEHLIRLLLEKGKCPENGWDESTLELFLHELAIMDSNNFLGNCGVGEREGRVASALVARRHYRFIHGIGRSGDISAVQPKAAGSSLLNKITNSLVLDIIKLAGVHTVANCFVVPMATGMSLTLCFLTLRHKRPKAKYIIWPRIDQKSCFKSMITAGFEPVVIENVLEGDELRTDLKAVEAKVQELGPDCILCIHSTTSCFAPRVPDRLEELAVICANYDIPHIVNNAYGVQSSKCMHLIQQGARVGRIDAFVQSLDKNFMVPVGGAIIAGFNDSFIQEISKMYPGRASASPSLDVLITLLSLGSNGYKKLLKERKEMFSYLSNQIKKLSEAYNERLLHTPHNPISLAMTLKTLDEHRDKAVTQLGSMLFTRQVSGARVVPLGSMQTVSGYTFRGFMSHTNNYPCAYLNAASAIGMKMQDVDLFIKRLDRCLKAVRKERSKESDDNYDKTEDVDIEEMALKLDNVLLDTYQDASS
notes: Human SEPSECS, wild type, cloned into pET15b (pET15b-hWTSSS); no tag cleavage is described in the purification; PLP cofactor is present in the buffers; also called WT SEPSECS; human WT SEPSECS
For B1, the “stoichiometry N” value amounted to 4.

B2: Δ470 SEPSECS (human SEPSECS with Asp470 mutated to a stop codon) (domain or fragment, UniProt Q9HD40 1-469, looked up)
chain: MNRESFAAGERLVSPAYVRQGCEARRSHEHLIRLLLEKGKCPENGWDESTLELFLHELAIMDSNNFLGNCGVGEREGRVASALVARRHYRFIHGIGRSGDISAVQPKAAGSSLLNKITNSLVLDIIKLAGVHTVANCFVVPMATGMSLTLCFLTLRHKRPKAKYIIWPRIDQKSCFKSMITAGFEPVVIENVLEGDELRTDLKAVEAKVQELGPDCILCIHSTTSCFAPRVPDRLEELAVICANYDIPHIVNNAYGVQSSKCMHLIQQGARVGRIDAFVQSLDKNFMVPVGGAIIAGFNDSFIQEISKMYPGRASASPSLDVLITLLSLGSNGYKKLLKERKEMFSYLSNQIKKLSEAYNERLLHTPHNPISLAMTLKTLDEHRDKAVTQLGSMLFTRQVSGARVVPLGSMQTVSGYTFRGFMSHTNNYPCAYLNAASAIGMKMQDVDLFIKRLDRCLKAVRKERSKES
notes: Human SEPSECS truncated by a stop codon at the position of Asp470 (removes the α15–α16 loop and α16); made from pET15b-hWTSSS by site-directed mutagenesis; Same vector and purification as the wild type; also called Δ470 human SEPSECS; truncated mutant
For the protein B2, the “stoichiometry N” value was found to be 4.
